Reference: article PMC8880170

Tests used:
[1] = biological target: SARS-CoV-2 nsp15 K290A (SARS-CoV-2); experiment: SEC; […] (20 mM Tris-HCl pH 8, 150 mM NaCl); […]
[2] = biological target: SARS-CoV-2 nsp15 N164A (SARS-CoV-2); experiment: SEC; […] (20 mM Tris-HCl pH 8, 150 mM NaCl); […]

Row | Substance | stoichiometry N [1] | stoichiometry N [2]
1 | SARS-CoV-2 nsp15 K290A (enzyme) | 6 | –
2 | SARS-CoV-2 nsp15 N164A (enzyme) | – | 6
